Here are results for 10 substances from PMC4104028.

In test [1] the target is endogenous Atg16L1 (HEK293A) (UniProt Q676U5). As to the kind of experiment: GFP-Trap, immunoblot quantification. Particulars: parent: est. 0.49; read off a plot. (In western blotting, separated proteins are transferred to a membrane and probed.)
Test [2] addresses FLAG-Atg16L1 E226R, Q8C0J2-3. As to the kind of experiment: GFP-Trap co-immunoprecipitation from mixed lysates, immunoblot quantification. Particulars: parent: est. 2.5; read off a plot.
The target of test [3] is FLAG-Atg16L1 E226R E230R (ERER), Q8C0J2-3. The test is described as above. Particulars: parent: est. 2.5; read off a plot.
Sequence of FLAG-Atg16L1 E226R E230R (ERER), Q8C0J2-3 (Q8C0J2 other isoform, or with tags, fused parts or gaps E226R | E230R | E226R E230R): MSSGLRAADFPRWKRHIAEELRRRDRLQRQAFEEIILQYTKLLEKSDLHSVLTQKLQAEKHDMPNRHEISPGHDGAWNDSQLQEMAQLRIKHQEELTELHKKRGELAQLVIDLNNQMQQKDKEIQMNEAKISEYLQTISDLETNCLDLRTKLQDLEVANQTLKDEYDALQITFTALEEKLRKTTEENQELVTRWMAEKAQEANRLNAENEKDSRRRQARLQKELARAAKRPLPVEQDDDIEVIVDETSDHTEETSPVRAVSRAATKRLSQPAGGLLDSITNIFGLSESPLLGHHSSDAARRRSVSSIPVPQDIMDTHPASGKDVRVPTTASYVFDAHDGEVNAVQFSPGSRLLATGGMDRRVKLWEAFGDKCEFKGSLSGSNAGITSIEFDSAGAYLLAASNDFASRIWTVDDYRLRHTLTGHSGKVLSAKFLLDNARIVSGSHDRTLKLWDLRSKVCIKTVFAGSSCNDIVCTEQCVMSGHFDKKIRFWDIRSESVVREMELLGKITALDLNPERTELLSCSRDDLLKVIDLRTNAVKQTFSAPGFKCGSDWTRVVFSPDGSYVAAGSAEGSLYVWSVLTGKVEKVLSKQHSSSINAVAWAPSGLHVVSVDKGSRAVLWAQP
In test [4] the target is FLAG-Atg16L1 E230R, Q8C0J2-3. The description is as above. The note with it: parent: est. 2.5; read off a plot.
Sequence of FLAG-Atg16L1 E230R, Q8C0J2-3 (Q8C0J2 other isoform, or with tags, fused parts or gaps E230R | E230R): as the sequence (Q8C0J2 other isoform, or with tags, fused parts or gaps E226R | E230R | E226R E230R) above, with R226E counted along it

Sequence of FLAG-Atg16L1 E226R, Q8C0J2-3 (Q8C0J2 other isoform, or with tags, fused parts or gaps E226R | E226R): as the sequence (Q8C0J2 other isoform, or with tags, fused parts or gaps E226R | E230R | E226R E230R) above, with R230E counted along it
Sequence of endogenous Atg16L1 (HEK293A) (Q676U5 whole entry): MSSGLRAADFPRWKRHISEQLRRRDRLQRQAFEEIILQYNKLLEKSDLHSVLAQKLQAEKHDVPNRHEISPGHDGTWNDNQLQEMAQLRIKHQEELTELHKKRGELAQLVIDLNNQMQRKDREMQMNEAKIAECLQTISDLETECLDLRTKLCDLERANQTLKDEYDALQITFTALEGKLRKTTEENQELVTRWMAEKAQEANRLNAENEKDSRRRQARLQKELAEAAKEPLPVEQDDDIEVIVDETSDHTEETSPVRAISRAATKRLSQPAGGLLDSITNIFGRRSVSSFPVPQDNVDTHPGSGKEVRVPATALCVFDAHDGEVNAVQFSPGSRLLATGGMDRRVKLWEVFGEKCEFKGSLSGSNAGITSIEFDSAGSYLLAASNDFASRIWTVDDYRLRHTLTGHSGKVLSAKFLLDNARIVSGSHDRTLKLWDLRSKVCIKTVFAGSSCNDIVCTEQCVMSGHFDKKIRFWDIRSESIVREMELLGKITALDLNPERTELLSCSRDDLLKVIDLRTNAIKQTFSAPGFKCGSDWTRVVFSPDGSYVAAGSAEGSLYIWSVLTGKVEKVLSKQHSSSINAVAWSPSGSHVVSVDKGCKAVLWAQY

For the substance GFP-WIPI2b FRRG to FTTG, in test [1], the response stood at 0.79.

Turning to m1; m3 WIPI2b:R108E; Atg16L1:E226R, the response in test [2] worked out at 0.05.

For the substance “m1; m3 WIPI2b:R108E; Atg16L1:E226R; Atg16L1:E230R”, the response in test [3] amounted to 0.13.

Regarding m1; m3 WIPI2b:R108E; Atg16L1:E230R, the response in test [4] was 0.87.

For the substance “m1; m3 WIPI2b:R108E; WIPI2b:R125E; Atg16L1:E226R”, the response in test [2] worked out at 0.04.

For “m1; m3 WIPI2b:R108E; WIPI2b:R125E; Atg16L1:E226R; Atg16L1:E230R”, the response in test [3] was 0.04.

For the substance “m1; m3 WIPI2b:R108E; WIPI2b:R125E; Atg16L1:E230R”, in test [4], the response was 0.05.

Take m1; m3 WIPI2b:R125E; Atg16L1:E226R: the response in test [2] is 0.05.

On to “m1; m3 WIPI2b:R125E; Atg16L1:E226R; Atg16L1:E230R”, for which the response in test [3] stood at 0.23.

On to m1; m3 WIPI2b:R125E; Atg16L1:E230R, for which the response in test [4] was 0.04.
